Target: human IL-18 receptor (alpha and beta subunits) on HEK-BLUE IL-18 reporter cells (human) (UniProt Q13478)
Assay: cell-based or functional assay

Sequence of human IL-18 receptor (alpha and beta subunits) on HEK-BLUE IL-18 reporter cells (human) (Q13478 19-541, chain 1 of 2): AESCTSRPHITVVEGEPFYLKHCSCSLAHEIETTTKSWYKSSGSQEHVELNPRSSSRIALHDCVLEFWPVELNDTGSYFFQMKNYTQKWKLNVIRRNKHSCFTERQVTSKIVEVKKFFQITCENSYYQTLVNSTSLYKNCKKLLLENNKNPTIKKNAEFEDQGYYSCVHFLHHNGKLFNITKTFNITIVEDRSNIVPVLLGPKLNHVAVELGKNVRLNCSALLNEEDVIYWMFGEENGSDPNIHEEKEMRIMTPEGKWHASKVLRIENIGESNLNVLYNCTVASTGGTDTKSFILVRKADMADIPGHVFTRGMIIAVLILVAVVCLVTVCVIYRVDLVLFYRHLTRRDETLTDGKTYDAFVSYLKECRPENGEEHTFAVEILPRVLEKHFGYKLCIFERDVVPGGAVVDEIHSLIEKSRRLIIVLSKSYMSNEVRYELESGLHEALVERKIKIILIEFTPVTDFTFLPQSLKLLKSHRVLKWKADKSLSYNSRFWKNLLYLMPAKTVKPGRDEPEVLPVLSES
Sequence of human IL-18 receptor (alpha and beta subunits) on HEK-BLUE IL-18 reporter cells (human) (O95256 20-599, chain 2 of 2, further chain): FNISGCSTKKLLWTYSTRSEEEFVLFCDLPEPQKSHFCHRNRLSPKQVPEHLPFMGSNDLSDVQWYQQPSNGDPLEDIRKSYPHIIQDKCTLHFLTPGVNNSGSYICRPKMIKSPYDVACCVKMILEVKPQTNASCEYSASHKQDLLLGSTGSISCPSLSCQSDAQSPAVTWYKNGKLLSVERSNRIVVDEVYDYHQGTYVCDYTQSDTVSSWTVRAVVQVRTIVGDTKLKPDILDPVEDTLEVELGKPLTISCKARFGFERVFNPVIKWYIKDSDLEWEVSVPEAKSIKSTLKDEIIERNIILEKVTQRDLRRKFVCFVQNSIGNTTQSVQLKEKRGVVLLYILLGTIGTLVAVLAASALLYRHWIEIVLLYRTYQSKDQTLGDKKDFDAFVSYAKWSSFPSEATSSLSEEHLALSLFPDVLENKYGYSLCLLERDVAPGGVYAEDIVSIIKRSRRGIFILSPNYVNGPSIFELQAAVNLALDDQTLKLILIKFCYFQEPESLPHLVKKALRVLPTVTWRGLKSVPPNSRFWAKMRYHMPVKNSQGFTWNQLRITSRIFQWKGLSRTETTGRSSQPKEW

## Human recombinant IL-18 (R&D Systems #9124-IL-050/CF) (from UniProt Q14116 1-193) (ligand)
  EC50, NF-κB reporter activity in HEK-BLUE IL-18 cells: 0.38 pM

From patent US20240158457A1, “INTERLEUKIN-18 RECEPTOR BINDING POLYPEPTIDES AND USES THEREOF” (Medikine, Inc., priority 2022, published 2024)
